The text below walks through data of patent US20220168347A1 (published 2022).

The target in the test is T1, gp100 (gp100-intron4) peptide on HLA-A*24:02 (human).
T1 peptide: VYFFLPDHL
Description: multimer staining.

B1: A*24:02/gp100-intron4 TCR (TCR, V domains shown)
Valpha: KQEVTQIPAALSVPEGENLVLNCSFTDSAIYNLQWFRQDPGKGLTSLLLIQSSQREQTSGRLNASLDKSSGRSTLYIAASQPGDSATYLCAVATDSWGKLQFGAGTQVVVTP
Vbeta: AAGVIQSPRHLIKEKRETATLKCYPIPRHDTVYWYQQGPGQDPQFLISFYEKMQSDKGSIPDRFSAQQFSDYHSELNMSSLELGDSALYFCASSLLPEGTGRVSGYTFGSGTRLTVV
Regarding B1, the binding result was “recognises”.
